Patent US20220185898A1 (Alector, published 2022)
No end group written: not given here. *: point of attachment. Biotin = O=C1N[C@H]2[C@H](CS[C@H]2CCCCC(=O)*)N1

Columns and labels:
[1] = biological target: T1, biotinylated human Sortilin monomer (human, UniProt Q99523 78-755, limits assumed, biotinylated (Sulfo-NHS-biotin)); test: ForteBio, peptide format: human Sortilin monomer (100 nM) on biotinylated PGRN peptide on SA sensors
T1 construct: monomer cut from the Fc fusion with IdeS; used unbiotinylated in solution in some formats; also called Bt-hSort; b-H Sort
Description: SA sensors were soaked in PBS for 10 min prior to analysis. […] The data was prepared for analysis with ForteBio Data Analysis Software version 8.1.0.36 as follows. The data was y-axis aligned and inter-step corrected to the beginning of the Sortilin capture step and then cropped to show only the Sortilin capture and antibody interaction steps.

[2] = biological target: T2, human Sortilin Fc fusion protein (human, UniProt Q99523 78-755); test: ForteBio, avid;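 also: whole IgG captured on AHQ sensors, then contacted with Sortilin Fc fusion antigen at 100 nM, followed by an off-rate phase in buffer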
T2 construct: whole entry named; also called hSort-Fc
Description: (§1) The affinity for the Sortilin antibodies was determined by measuring their KD by ForteBio. […] Briefly, ForteBio affinity measurements were performed by loading IgGs on-line onto AHQ sensors. Sensors were equilibrated off-line in assay buffer for 30 min and then monitored on-line for 60 seconds for baseline establishment. For avid binding measurement, sensors with loaded IgGs were exposed to 100 nM antigen (human or mouse Sortilin Fc fusion) for 3, afterwards they were transferred to assay buffer for 3 min for off-rate measurement.
(§2) The binding affinity of each anti-Sortilin antibody was determined by measuring their KD by ForteBio or MSD-SET at room temperature. […] Briefly, ForteBio affinity measurements were performed by loading IgGs on-line onto AHQ sensors. Sensors were equilibrated off-line in assay buffer for 30 min and then monitored on-line for 60 seconds for baseline establishment. Sensors with loaded IgGs were exposed to 100 nM antigen for 5 minutes, then transferred to assay buffer for 5 min for off-rate measurement. Kinetics were analyzed using the 1:1 binding model.

[3] = biological target: T3, mouse Sortilin Fc fusion protein (mouse; human, UniProt Q6PHU5 74-754); test: ForteBio, avid;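 also: whole IgG captured on AHQ sensors, then contacted with Sortilin Fc fusion antigen at 100 nM, followed by an off-rate phase in buffer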
T3 construct: whole entry named; also called mSort-Fc
Description: as §1, §2

[4] = biological target: T4, human Sortilin expressed on 293 / HEK293T cells (human, UniProt Q99523 78-830); test: FACS, 293 cells;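 also: antibodies at 10 µg/ml bound to cells for 1 h on ice, detected with PE-labelled anti-human secondary antibody by flow cytometry, reported as mean fluorescence intensity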
T4 construct: full-length recombinant human Sortilin; also called hSort; SORT1
Description: (§3) Cells were harvested, plated at 10⁵/ml in a 96 well plate, washed, and incubated in 100 μl PBS containing 10 μg/ml Mab and 2% FBS for 1 hour in ice. Cells were then washed twice and incubated in 100 μl PBS+2% FBS containing 5 μg/ml PE-conjugated anti-human secondary antibody for 30 minutes in ice. Cells were washed twice in cold PBS and data was acquired on a BD FACS Canto. Data analysis and calculation of MFI values was performed with FlowJo (TreeStar) software version 10.0.7.

[5] = biological target: T5, mouse Sortilin expressed on 293 / HEK293T cells (mouse, UniProt Q6PHU5 74-825); test: FACS, 293 cells;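 also: antibodies at 10 µg/ml bound to cells for 1 h on ice, detected with PE-labelled anti-human secondary antibody by flow cytometry, reported as mean fluorescence intensity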
T5 construct: full-length recombinant mouse Sortilin; also called mSort; msSort
Description: as §3

[6] = biological target: T4, human Sortilin expressed on 293 / …; test: cell binding, HEK293T, FACS
[7] = biological target: T5, mouse Sortilin expressed on 293 / …; test: cell binding, HEK293T, FACS
[8] = biological target: T1, biotinylated human Sortilin monomer; test: MSD-SET, Fab
Description: (§4) Antibodies (20 nM in PBS) were coated onto standard bind MSD-ECL plates overnight at 4° C. or at room temperature for 30 min. Plates were then blocked with 1% BSA for 30 min with shaking at 700 rpm, followed by three washes with wash buffer (PB SF+0.05% Tween 20). SET samples were applied and incubated on the plates for 150 s with shaking at 700 rpm followed by one wash. Antigen captured on a plate was detected with 250 ng/ml sulfotag-labeled streptavidin in PBSF by incubation on the plate for 3 min. The plates were washed three times with wash buffer and then read on the MSD Sector Imager 2400 instrument using 1× Read Buffer T with surfactant. The percent free antigen was plotted as a function of titrated antibody in Prism and fit to a quadratic equation to extract the KD. To improve throughput, liquid handling robots were used throughout MSD-SET experiments, including SET sample preparation.

[9] = biological target: T6, biotinylated mouse Sortilin monomer (mouse, UniProt Q6PHU5 74-754, limits assumed, biotinylated); test: MSD-SET, Fab
T6 construct: also called Bt-msSort
Description: as §4

[10] = biological target: T1, biotinylated human Sortilin monomer; test: ForteBio, Fab
Description: (§5) The affinity of the anti-Sortilin antibodies was determined by measuring their KD by ForteBio and MSD. […] Briefly, ForteBio affinity measurements were performed by loading immunoglobulins (IgGs) on-line onto AHQ sensors. Sensors were equilibrated off-line in assay buffer for 30 min and then monitored on-line for 60 seconds for baseline establishment. For avid binding measurement, sensors with loaded IgGs were exposed to 100 nM antigen (human or mouse Sortilin Fc fusion) for 3 min, afterwards they were transferred to assay buffer for 3 min for off-rate measurement. […] Monovalent binding measurements were obtained by loading human or mouse Sortilin Fc fusion antigens to AHQ sensor and followed by exposure to −100 nM Sortilin antibody Fab. […] Kinetics data were fit using a 1:1 binding model in the data analysis software provided by ForteBio.

[11] = biological target: T6, biotinylated mouse Sortilin monomer; test: ForteBio, Fab
Description: as §5

[12] = biological target: T7, recombinant human Sortilin, His-tagged (R&D Systems) (human, UniProt Q99523 78-755); test: Biacore SPR, His-captured Sortilin
T7 construct: bought; whole entry named; also called His-captured SORT1

[13] = biological target: T7, recombinant human Sortilin, His-tagged …; test: ELISA, biotinylated PGRN on immobilized Sortilin
[14] = biological target: T5, mouse Sortilin expressed on 293 / …; test: FACS, time course of binding and endocytosis of human PGRN-DyLight650 by HEK293T cells expressing mouse Sortilin
[15] = biological target: T1, biotinylated human Sortilin monomer; test: ForteBio, avidity, biotinylated human Sortilin on sensor
[16] = biological target: T1, biotinylated human Sortilin monomer; test: MSD-SET, Fab; MSD, Fab, monovalent biotinylated human Sortilin
Description: as §4

[17] = biological target: T8, recombinant mouse Sortilin (R&D Systems) (mouse, UniProt Q6PHU5 74-754, limits assumed); test: ELISA, biotinylated PGRN on immobilized Sortilin
T8 construct: bought; also called mouse SORT1

Binder | Kd [2] | Kd [3] | MFI [4] | MFI [5] | Kd [9] | Kd [10] | further results
Biotin-TKCLRREAPRWDAPLRDPALRQLL (also called hPGRN peptide) [biotinylated Progranulin C-terminal peptide] | – | – | – | – | – | – | binding result [1]: binds
S-22-3 Fab (Fab, V domains shown, Fab by papain digestion) VH: QVQLVQSGAEVKKPGSSVKVSCKASGGTFRSYAISWVRQAPGQGLEWMGGIIPGFGTAWYAQKFQGRVTITADESTSTAYMELSSLRSEDTAVYYCARQGRKTGYYYYYGMDVWGQGTTVTVSS VL: DIQMTQSPSTLSASVGDRVTITCRASQSISSWLAWYQQKPGKAPKLLIYKASSLESGVPSRFSGSGSGTEFTLTISSLQPDDFATYYCQQADGHITFGGGTKVEIK | – | – | – | – | 1.2 nM | 0.698 nM | Kd [8]: 0.097 nM; Kd [11]: 1.43 nM
S-22-7 Fab (Fab, V domains shown, Fab by papain digestion) VH: QVQLVQSGAEVKKPGSSVKVSCKASGGTFSSYAISWVRQAPGQGLEWMGGIIPGFGRANYAQKFQGRVTITADESTSTAYMELSSLRSEDTAVYYCARQGRKTGYYYYYGMDVWGQGTTVTVSS VL: DIQMTQSPSTLSASVGDRVTITCRASQSISSWLAWYQQKPGKAPKLLIYKASSLESGVPSRFSGSGSGTEFTLTISSLQPDDFATYYCQQADGHITFGGGTKVEIK | – | – | – | – | 0.57 nM | 0.508 nM | Kd [8]: 0.098 nM; Kd [11]: 0.751 nM
S-15-14 Fab (Fab, V domains shown, Fab by papain digestion) VH: QVQLVQSGAEVKKPGASVKVSCKASGYTFTSQYMSWVRQAPGQGLEWMGIINPYGGSTSYAQKFQGRVTMTRDTSTSTVYMELSSLRSEDTAVYYCARDPSGIAAAGPASRYYYGMDVWGQGTTVTVSS VL: EIVMTQSPATLSVSPGERATLSCRASQSVSSNLAWYQQKPGQAPRLLIYGASTRATGIPARFSGSGSGTEFTLTISSLQSEDFAVYYCQQARLGPWTFGGGTKVEIK | – | – | – | – | 0.1 nM | 1.04 nM | Kd [8]: 0.19 nM; Kd [11]: 0.758 nM
recombinant human Progranulin (Adipogen) (ligand, UniProt P28799 18-593, looked up, biotinylated or DyLight650-labelled in some assays, also called hPGRN; PGRN) TRCPDGQFCPVACCLDPGGASYSCCRPLLDKWPTTLSRHLGGPCQVDAHCSAGHSCIFTVSGTSSCCPFPEAVACGDGHHCCPRGFHCSADGRSCFQRSGNNSVGAIQCPDSQFECPDFSTCCVMVDGSWGCCPMPQASCCEDRVHCCPHGAFCDLVHTRCITPTGTHPLAKKLPAQRTNRAVALSSSVMCPDARSRCPDGSTCCELPSGKYGCCPMPNATCCSDHLHCCPQDTVCDLIQSKCLSKENATTDLLTKLPAHTVGDVKCDMEVSCPDGYTCCRLQSGAWGCCPFTQAVCCEDHIHCCPAGFTCDTQKGTCEQGPHQVPWMEKAPAHLSLPDPQALKRDVPCDNVSSCPSSDTCCQLTSGEWGCCPIPEAVCCSDHQHCCPQGYTCVAEGQCQRGSEIVAGLEKMPARRASLSHPRDIGCDQHTSCPVGQTCCPSLGGSWACCQLPHAVCCEDRQHCCPAGYTCNVKARSCEKEVVSAQPATFLARSPHVGVKDVECGEGHFCHDNQTCCRDNRQGWACCPYRQGVCCADRRHCCPAGFRCAARGTKCLRREAPRWDAPLRDPALRQLL | – | – | – | – | – | – | Kd [12]: 14.3 nM; Kd [13]: 14 nM; binding result [14]: binds
S-14 (antibody, V domains shown, IgG) VH: QVQLVQSGAEVKKPGASVKVSCKASGYTFTSYYMSWVRQAPGQGLEWMGIINPSGGSTSYAQKFQGRVTMTRDTSTSTVYMELSSLRSEDTAVYYCARDPSGIAAAGPASRYYYGMDVWGQGTTVTVSS VL: DIQMTQSPSSLSASVGDRVTITCRASQSISSYLNWYQQKPGKAPKLLIYGASSLQSGVPSRFSGSGSGTDFTLTISSLQPEDFATYYCQQHYVGPFTFGGGTKVEIK | 5.74 nM | 2.74 nM | 8010 | 16500 | – | – | Kd [15]: 0.8 nM
S-2-1 Fab (Fab, V domains shown, Fab by papain digestion of the IgG) VH: QVQLVQSGAEVKKPGASVKVSCKASGYTFGAYYMHWVRQAPGQGLEWMGWINPNSGFTRYAQKFQGRVTMTRDTSISTAYMELSRLRSDDTAVYYCARGKRSSGWYEGYGMDVWGQGTTVTVSS VL: DIQMTQSPSSLSASVGDRVTITCRASQSISSYLNWYQQKPGKAPKLLIYAASSLQSGVPSRFSGSGSGTDFTLTISSLQPEDFATYYCQQSDVSPITFGGGTKVEIK | – | – | – | – | 0.73 nM | 0.614 nM | Kd [16]: 0.029 nM
recombinant mouse Progranulin (Adipogen) (ligand, UniProt P28798 18-589, looked up, biotinylated, also called mPGRN; Bio-mPGRN) TQCPDGQFCPVACCLDQGGANYSCCNPLLDTWPRITSHHLDGSCQTHGHCPAGYSCLLTVSGTSSCCPFSKGVSCGDGYHCCPQGFHCSADGKSCFQMSDNPLGAVQCPGSQFECPDSATCCIMVDGSWGCCPMPQASCCEDRVHCCPHGASCDLVHTRCVSPTGTHTLLKKFPAQKTNRAVSLPFSVVCPDAKTQCPDDSTCCELPTGKYGCCPMPNAICCSDHLHCCPQDTVCDLIQSKCLSKNYTTDLLTKLPGYPVKEVKCDMEVSCPEGYTCCRLNTGAWGCCPFAKAVCCEDHIHCCPAGFQCHTEKGTCEMGILQVPWMKKVIAPLRLPDPQILKSDTPCDDFTRCPTNNTCCKLNSGDWGCCPIPEAVCCSDNQHCCPQGFTCLAQGYCQKGDTMVAGLEKIPARQTTPLQIGDIGCDQHTSCPVGQTCCPSLKGSWACCQLPHAVCCEDRQHCCPAGYTCNVKARTCEKDVDFIQPPVLLTLGPKVGNVECGEGHFCHDNQTCCKDSAGVWACCPYLKGVCCRDGRHCCPGGFHCSARGTKCLRKKIPRWDMFLRDPVPRPLL | – | – | – | – | – | – | Kd [17]: 40 nM

Second part, led by results:

Kd [2] | Kd [3] | MFI [4] | MFI [5] | Kd [9] | Kd [10] | Binder | further results
0.99 nM | 1.12 nM | 8940 | 23200 | – | – | S-22 (antibody, V domains shown, IgG) VH: QVQLVQSGAEVKKPGSSVKVSCKASGGTFSSYAISWVRQAPGQGLEWMGGIIPIFGTASYAQKFQGRVTITADESTSTAYMELSSLRSEDTAVYYCARQGRKTGYYYYYGMDVWGQGTTVTVSS VL: DIQMTQSPSTLSASVGDRVTITCRASQSISSWLAWYQQKPGKAPKLLIYKASSLESGVPSRFSGSGSGTEFTLTISSLQPDDFATYYCQQADGHITFGGGTKVEIK | Kd [6]: 2.4 nM; Kd [7]: 5 nM
2.3 nM | 1.4 nM | 8740 | 17600 | – | – | S-15 (antibody, V domains shown, IgG) VH: QVQLVQSGAEVKKPGASVKVSCKASGYTFTSYYMSWVRQAPGQGLEWMGIINPSGGSTSYAQKFQGRVTMTRDTSTSTVYMELSSLRSEDTAVYYCARDPSGIAAAGPASRYYYGMDVWGQGTTVTVSS VL: EIVMTQSPATLSVSPGERATLSCRASQSVSSNLAWYQQKPGQAPRLLIYGASTRATGIPARFSGSGSGTEFTLTISSLQSEDFAVYYCQQARLGPWTFGGGTKVEIK | Kd [6]: 3.3 nM; Kd [7]: 6.4 nM
0.517 nM | 1.07 nM | 8430 | 22400 | – | – | S-2 (antibody, V domains shown, IgG; also called S-02) VH: not shown VL: DIQMTQSPSSLSASVGDRVTITCRASQSISSYLNWYQQKPGKAPKLLIYAASSLQSGVPSRFSGSGSGTDFTLTISSLQPEDFATYYCQQSDVSPITFGGGTKVEIK | Kd [6]: 1.1 nM; Kd [7]: 6.6 nM
